# Experimental data from patent US20230002481A1 (Chugai, published 2023).
# T1: recombinant cyno C1r2s2 His/Flag tetramer (cynomolgus monkey, limits assumed)
# T1 construct: Heterotetramer of two C1r-His and two C1s-Flag chains, co-expressed in FreeStyle293-F cells; also called cyno C1r2s2s
# T1 chain 1: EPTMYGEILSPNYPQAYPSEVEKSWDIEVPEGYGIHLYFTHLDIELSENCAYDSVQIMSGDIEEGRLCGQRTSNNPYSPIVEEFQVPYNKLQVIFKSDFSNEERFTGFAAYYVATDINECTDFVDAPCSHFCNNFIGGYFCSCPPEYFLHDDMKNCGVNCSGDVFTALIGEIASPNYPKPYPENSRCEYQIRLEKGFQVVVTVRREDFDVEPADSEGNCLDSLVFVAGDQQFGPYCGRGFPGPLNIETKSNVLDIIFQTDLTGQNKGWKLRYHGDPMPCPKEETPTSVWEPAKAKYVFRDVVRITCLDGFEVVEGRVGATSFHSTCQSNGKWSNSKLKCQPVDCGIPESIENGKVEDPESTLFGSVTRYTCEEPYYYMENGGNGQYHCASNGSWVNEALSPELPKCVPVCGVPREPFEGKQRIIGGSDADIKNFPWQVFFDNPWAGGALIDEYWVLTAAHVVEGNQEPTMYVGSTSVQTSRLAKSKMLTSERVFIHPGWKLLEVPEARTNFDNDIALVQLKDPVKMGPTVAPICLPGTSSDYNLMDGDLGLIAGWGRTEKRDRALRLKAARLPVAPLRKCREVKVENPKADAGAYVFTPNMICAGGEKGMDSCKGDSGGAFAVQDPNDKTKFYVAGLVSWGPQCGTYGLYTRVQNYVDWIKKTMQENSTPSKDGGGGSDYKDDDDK
# T1 chain 2: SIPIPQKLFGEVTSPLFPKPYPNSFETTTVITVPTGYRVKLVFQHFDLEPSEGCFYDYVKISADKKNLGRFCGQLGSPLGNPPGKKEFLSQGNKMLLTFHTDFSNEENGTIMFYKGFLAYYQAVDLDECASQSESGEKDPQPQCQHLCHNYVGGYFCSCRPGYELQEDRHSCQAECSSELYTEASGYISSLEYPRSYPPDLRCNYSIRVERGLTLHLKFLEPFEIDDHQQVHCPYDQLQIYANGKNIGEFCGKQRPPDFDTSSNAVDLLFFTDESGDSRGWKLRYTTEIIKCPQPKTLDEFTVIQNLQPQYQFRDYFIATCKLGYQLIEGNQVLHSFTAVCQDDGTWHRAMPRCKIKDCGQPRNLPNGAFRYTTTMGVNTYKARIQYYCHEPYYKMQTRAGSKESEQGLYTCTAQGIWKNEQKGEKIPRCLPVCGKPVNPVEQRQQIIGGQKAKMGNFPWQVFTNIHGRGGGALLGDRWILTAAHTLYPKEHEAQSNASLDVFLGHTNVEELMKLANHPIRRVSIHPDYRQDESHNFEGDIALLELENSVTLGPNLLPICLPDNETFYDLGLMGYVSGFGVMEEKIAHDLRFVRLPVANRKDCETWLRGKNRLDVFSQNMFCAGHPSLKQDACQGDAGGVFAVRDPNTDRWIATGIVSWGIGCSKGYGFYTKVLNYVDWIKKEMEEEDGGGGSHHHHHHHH
# B1: COS0098bb (antibody, V domains shown)
# VH: QSVEESGGRLVTPGTPLTLTCTVSGFSLTKYTVSWVRQAPGKGLEWIGIINTGGSAYYATWAKGRFTFSKTSTTVDLQITSPTTEDTATYFCARGNGDTDYTNLWGPGTLVTVSS
# VL: QVLTQTPSSVSEPVGGTVTINCQASENIYSALAWYQQKPGQPPKLLIYGASNLESGVPSRFKGSGSGTQFTLTISDLECADAATYYCQQYYFTSSTFGGGTKVEIK
# notes: Anti-C1s rabbit antibody, parent of COS0098pHv1; the antibody was captured by ProA/G; also called anti-C1s antibody COS0098bb
# Molecular target: T1, recombinant cyno C1r2s2 His/Flag …
# Experiment: SPR (Biacore), antibody captured on ProA/G, antigen as analyte, 37 C, pH7.4, 1.2 mM CaCl2; pH 7.4
# Experimental: The kinetic parameters of anti-C1s antibodies against recombinant human C1s (as described in PCT/JP2018/042054), human C1r2s2, and cyno C1r2s2 His/Flag (also referred as cyno C1r2s2 in the Table and Figures) were assessed at pH7.4 and pH5.8, at 37 degrees C. using BIACORE (registered trademark) T200 instrument (GE Healthcare) or BIACORE 4000 (GE Healthcare). ProAG (Pierce) was immobilized onto a CM4 sensorchip using amine coupling kit (GE Healthcare) according to the recommended settings by GE Healthcare. Antibodies and analytes were diluted into the respective running buffers, ACES pH7.4 and pH5.8 (20 mM ACES, 150 mM NaCl, 1.2 mM CaCl₂, 1 mg/ml BSA, 1 mg/ml CMD, 0.05% Tween 20, 0.005 w/v % NaN₃). Each antibody was captured onto the sensor surface by ProA/G. Antibody capture levels were typically 100-200 resonance units (RU). Then, recombinant C1s was injected at concentrations of 25 and 50 nM followed by dissociation at pH7.4 and pH5.8. The surface was regenerated using 10 mM Glycine-HCl, pH1.5. Kinetic parameters at neutral pH conditions and acidic conditions were determined by fitting the sensorgrams with 1:1 binding model using BIACORE (registered trademark) T200 Evaluation software, version 2.0 (GE Healthcare) or BIACORE 4000 Evaluation software. The dissociation rate at pH5.8 (after dissociation at pH7.4, indicated as pH5.8* in TABLE 2) was determined by processing and fitting data using Scrubber 2.0 (BioLogic Software) curve fitting software. The association rate (ka), dissociation rate (kd), binding affinity (KD) at pH7.4 and pH5.8 condition, and dissociation rate (kd) at pH5.8* condition of the antibodies are listed in TABLE 2. Some kinetic parameters of COS0098pHv1 in acidic condition were not correctly calculated because of its weak binding response.
# Also, to observe the cross-reactivity of anti-C1s antibodies against human C1r2s2 and cyno C1r2s2 (cyno C1r2s2 His/Flag), BIACORE (registered trademark) kinetics analysis was performed.
binder,measurement,value
B1,Kd,0.0821 nM
same,koff,8.1e-05 s⁻¹
same,kon,987000 M⁻¹ s⁻¹
